Results from PMC2914609 (Nanomedicine (London, England), 2010).

Biological target: the molecule itself
Assay: SEC

B1: Phage fusion 55-mer coat protein (pVIII coat fusion protein bearing the MCF-7-specific peptide DMPGTVLP) (designed binder)
chain: ADMPGTVLPDPAKAAFDSLQASATEYIGYAWAMVVVIVGATIGIKLFKKFTSKAS
- stoichiometry N: 8
